Assay results reported in patent US20240293588A1, “THERAPEUTIC CONJUGATES” (Starpharma Pty Ltd, priority 2020, published 2024).

B1: Nanobody*-N3/DBCO-NHCO-PEG12TCO/(MeTzPh)PEG4CO-NHPEG24CO-[N(PN)2][Lys]4[Lys]8[((α-NHCy5)1(α-NHAc)7)(ε-NH-COPEG1100)8], Compound 124 (VHH)
VHH: EVQLVESGGSLVQPGGSLRLSCAASGFTFDDYAMSWVRQVPGKGLEWVSSINWSGTHTDYADSVKGRFTISRNNANNTLYLQMNSLKSEDTAVYYCAKNWRDAGTTWFEKSGSAGQGTQVTVSS
modifications: C-terminal # (unnatural amino acid, p-azido-phenylalanine) clicked to DBCO-NHCO-PEG12-TCO, joined to the tetrazine at the core of the G3 lysine dendrimer Compound 52 (1 Cy5, 7 acetyl, 8 PEG1100)
notes: also called G3 2D3 conjugated dendrimer
B2: Nanobody*-N3/DBCO-NHCO-PEG12TCO/((MeTzPh)PEG4CO-NHPEG24CO-[N(PN)2][Lys]2[Lys]4[Lys]8[Lys]16[((α-NHCy5)1(α-NHAc)15)(ε-NH-COPEG1100)16, Compound 125 (VHH)
VHH: B1 VHH
modifications: C-terminal # (unnatural amino acid, p-azido-phenylalanine) clicked to DBCO-NHCO-PEG12-TCO, joined to the tetrazine at the core of the G4 lysine dendrimer Compound 53 (1 Cy5, 15 acetyl, 16 PEG1100)
notes: also called G4 2D3 conjugated dendrimer
B3: Nanobody*-N3/DBCO-NHCO-PEG12TCO/(MeTzPh)PEG4CO-NHPEG24CO-[N(PN)2][Lys]2[Lys]4[Lys]8[Lys]16[Lys]32[((α-NHCy5)1(α-NHAc)31)(ε-NH-COPEG1100)32], Compound 126 (VHH)
VHH: B1 VHH
modifications: C-terminal # (unnatural amino acid, p-azido-phenylalanine) clicked to DBCO-NHCO-PEG12-TCO, joined to the tetrazine at the core of the G5 lysine dendrimer Compound 54 (1 Cy5, 31 acetyl, 32 PEG1100)
notes: G5 2D3 conjugated dendrimer

Experiments:
ErbB2-ECD [1] = biological target: T1, ErbB2-ECD (Homo sapiens, UniProt P04626); assay: SPR, ErbB2-ECD amine-coupled on chip, analyte injected, 25 °C, 1:1 Langmuir fit; affibody dimeric
ErbB2-ECD [2] = biological target: T1, ErbB2-ECD; assay: SPR binding studies with immobilized ErbB2-ECD; conditions: result in words
Description: Using a ProteOn XPR36 instrument, ErbB2-ECD was immobilized at 25° C. onto a GLC sensor chip surface (Bio-Rad), with HBS-P+ running buffer (10 mM HEPES, pH 7.4, 150 mM NaCl, 0.05% Tween 20). Standard amine coupling methodology described in Bio-Rad's amine coupling kit was utilized for this immobilization. Lane 1 was activated with a 50:50 mixture of EDC (0.5 mM) and sulfo-NHS (0.125 mM). ErbB2 protein was diluted to […] in 10 mM sodium acetate, pH 5.0 and injected over the activated surface channel. Any remaining activated sites were blocked with 1 M ethanolamine-HCl, pH 8.5.
All SPR binding experiments were performed at 25° C. using HBS-EP+/BSA (10 mM HEPES, pH 7.4, 150 mM NaCl, 3 mM EDTA, 0.05% Tween20, 0.1 mg/ml BSA) as the instrument running buffer (RB). Following immobilization procedures, various concentrations of anti-ErbB2 affibodies and their MMAE-dendrimer conjugates were injected at 60 μl/min over immobilized ErbB2 proteins and their association monitored for 90 sec. Running buffer was subsequently injected over bound Ab-ErbB2 complexes and dissociation monitored for up to 60 min. […] All binding measurements were performed in triplicate.
Collected experimental data were processed using Scrubber-Pro software (www.biologic.com.au). […]

MDA-MB-231/HER2 tumours = assay: Tumour distribution of tritium-labelled MMAE-conjugated dendrimers; format: in vivo, NOD/SCID mice; conditions: 3H label, 0.5 μCi via tail vein, 48 h, mean±SEM
Description: MDA-MB-231/HER2 cells (5×10^6 cells in 50 μL of PBS:Matrigel) were transplanted into the 4th mammary fat pad of female NOD/SCID mice (5-7 weeks old) subcutaneously. Solid tumours were allowed to grow to 100 mm^3 (approximately 3-4 weeks). The mice were divided into two different groups, consisting of six mice in each group. Compound 72 (control group) or Compound 127 (targeted group) (0.5 μCi in 100 μL, PBS pH 7) was then injected via tail vein under isoflurane sedation. The mice were anaesthetised with isoflurane 48 h later, and blood collected via cardiac puncture immediately prior to cervical dislocation. Selected organs (including tumour, liver, spleen, kidney, pancreas, lung, heart and brain) were subsequently removed, weighed and processed for tritium (^3H) biodistribution.

[3] = biological target: T2, HER2 (human epidermal growth factor receptor 2) on cells (human, UniProt P04626 23-1255); assay: flow cytometry (Cy5), MDA-MB-231/HER2 cells, 3.33 nM, 37 °C, 0.5 h
T2 construct: whole, on cells; also called ERBB2; HER2 receptor
Description: (§1) After incubation, non-binding/non-associating particles were removed from adherent cells by gently washing with DPBS three times (300 μL/well). Cells were removed from plates by treatment with TrypLE™ Express Enzyme (1×), no phenol red (150 μL/well) for 5-10 min at room temperature. The plates were then placed on ice. Cellular binding and association of sample were then determined through flow cytometry by the acquisition of the signal from Cy5.
(§2) To measure internalisation kinetics, nanobody-dendrimer was incubated with cells for 24, 4, 1, 0.5, and 0.1 hours at 37° C. before unbound nanobody-dendrimer was removed by washing and analysed by flow cytometry.

[4] = biological target: T2, HER2 (human epidermal growth factor …); assay: flow cytometry (Cy5), MDA-MB-231/HER2 cells, 3.33 nM, 37 °C, 4 h
[5] = biological target: T2, HER2 (human epidermal growth factor …); assay: flow cytometry (Cy5), MDA-MB-231 parental cells (HER2 lo, control), 2 h
[6] = biological target: T2, HER2 (human epidermal growth factor …); assay: flow cytometry (Cy5), MDA-MB-231 parental cells (HER2 lo, control), 3.33 nM, 37 °C, 0.5 h
Description: as §1, §2

[7] = biological target: T2, HER2 (human epidermal growth factor …); assay: flow cytometry (Cy5), MDA-MB-231 parental cells (HER2 lo, control), 0.25 h
[8] = biological target: T2, HER2 (human epidermal growth factor …); assay: flow cytometry (Cy5), MDA-MB-231/HER2 cells, 3.33 nM, 37 °C, 24 h
[9] = biological target: T2, HER2 (human epidermal growth factor …); assay: flow cytometry (Cy5), MDA-MB-231/HER2 cells, 3.33 nM, 37 °C, 2 h
[10] = biological target: T2, HER2 (human epidermal growth factor …); assay: flow cytometry (Cy5), MDA-MB-231/HER2 cells, 2 h
[11] = biological target: T2, HER2 (human epidermal growth factor …); assay: flow cytometry (Cy5), MDA-MB-231/HER2 cells, 0.25 h
[12] = biological target: T2, HER2 (human epidermal growth factor …); assay: flow cytometry (Cy5), MDA-MB-231 parental cells (HER2 lo, control), 0.5 h
[13] = biological target: T2, HER2 (human epidermal growth factor …); assay: flow cytometry (Cy5), MDA-MB-231/HER2 cells, 1 h
[14] = biological target: T2, HER2 (human epidermal growth factor …); assay: flow cytometry (Cy5), MDA-MB-231 parental cells (HER2 lo, control), 4 h
[15] = biological target: T2, HER2 (human epidermal growth factor …); assay: flow cytometry (Cy5), MDA-MB-231 parental cells (HER2 lo, control), 24 h
[16] = biological target: T2, HER2 (human epidermal growth factor …); assay: flow cytometry (Cy5), MDA-MB-231 parental cells (HER2 lo, control), 1 h
[17] = biological target: T2, HER2 (human epidermal growth factor …); assay: flow cytometry (Cy5), MDA-MB-231 parental cells (HER2 lo, control), 3.33 nM, 37 °C, 2 h
Description: as §1, §2

[18] = biological target: T2, HER2 (human epidermal growth factor …); assay: flow cytometry (Cy5), MDA-MB-231 parental cells (HER2 lo, control), 3.33 nM, 37 °C, 0.25 h
Description: as §1, §2

[19] = biological target: T2, HER2 (human epidermal growth factor …); assay: flow cytometry (Cy5), MDA-MB-231 parental cells (HER2 lo, control), 3.33 nM, 37 °C, 1 h
[20] = biological target: T2, HER2 (human epidermal growth factor …); assay: flow cytometry (Cy5), MDA-MB-231/HER2 cells, 24 h
[21] = biological target: T2, HER2 (human epidermal growth factor …); assay: flow cytometry (Cy5), MDA-MB-231 parental cells (HER2 lo, control), 3.33 nM, 37 °C, 24 h
Description: as §1, §2

[22] = biological target: T2, HER2 (human epidermal growth factor …); assay: flow cytometry (Cy5), HER2-positive MDA-MB-453 cells, triplicate wells
[23] = biological target: T2, HER2 (human epidermal growth factor …); assay: flow cytometry (Cy5), MDA-MB-231/HER2 cells, 3.33 nM, 37 °C, 0.25 h
Description: as §1, §2

[24] = biological target: T2, HER2 (human epidermal growth factor …); assay: flow cytometry (Cy5), MDA-MB-231/HER2 cells, 3.33 nM, 37 °C, 1 h
[25] = biological target: T2, HER2 (human epidermal growth factor …); assay: flow cytometry (Cy5), MDA-MB-231 parental cells (HER2 lo, control), 3.33 nM, 37 °C, 4 h
Description: as §1, §2

[26] = biological target: T2, HER2 (human epidermal growth factor …); assay: flow cytometry (Cy5), MDA-MB-231/HER2 cells, 4 h
[27] = biological target: T2, HER2 (human epidermal growth factor …); assay: flow cytometry (Cy5), MDA-MB-231/HER2 cells, 0.5 h

Molecule	percent of cellular association [3] [%]	percent of cellular association [4] [%]	MFI [5]	percent of cellular association [6] [%]	MFI [7]	percent of cellular association [8] [%]	percent of cellular association [9] [%]	MFI [10]	MFI [11]	MFI [12]	MFI [13]	MFI [14]	MFI [15]	MFI [16]	percent of cellular association [17] [%]	percent of cellular association [18] [%]	percent of cellular association [19] [%]	MFI [20]	percent of cellular association [21] [%]	MFI [22]	also measured
Affibody protein (HER2, Affibody AB) (designed binder)																					Kd (ErbB2-ECD [1]): 266 pM; koff (ErbB2-ECD [1]): 0.00051 s⁻¹; kon (ErbB2-ECD [1]): 1.9e+06 M⁻¹ s⁻¹
Azido-PEG24CO—[N(PN)2][Lys]2[Lys]4[Lys]8[(α-NHGlu-vc-PAB-MMAE)8(ε-NH-COPEG2000)8], G3 [Compound 66]																					binding to ErbB2 proteins (SPR) (ErbB2-ECD [2]): No binding
(MeTzPh)PEG4CO-NHPEG24CO—[N(PN)2][Lys]2[^3H-Lys]4[Lys]8[(α-NHGlu-VC-PAB-MMAE)8(ε-NH-COPEG1100)8], G3 [Compound 72]																					accumulation in HER2 positive tumours (MDA-MB-231/HER2 tumours): 1.88 % dose/g; blood concentration (MDA-MB-231/HER2 tumours): 3.69 % dose/g
Azido-PEG24CO—[N(PN)2][Lys]2[Lys]4[Lys]8[(α-NHGlu-vc-PAB-MMAE)8(ε-NH-COPEG1100)8], G3 [Compound 65]																					binding to ErbB2 proteins (SPR) (ErbB2-ECD [2]): No binding
B1	0.6	50.6	241	0.87	246	60.7	17.4	445	235	228	294	250	224	237	1.13	1.07	0.8	1110	0.83	50.8	percent of cellular association [23]: 0.67%; percent of cellular association [24]: 2.57%; percent of cellular association [25]: 0.93%; MFI [26]: 800; MFI [27]: 226
B2	0.67	36	236	0.53	227	56.3	6.13	342	215	223	241	246	219	230	0.77	0.87	1	1010	0.87	158	percent of cellular association [23]: 0.57%; percent of cellular association [24]: 0.77%; percent of cellular association [25]: 0.83%; MFI [26]: 611; MFI [27]: 224
B3	0.7	59.8	233	1.03	195	73.5	18	436	207	245	295	247	223	254	0.73	0.53	1.37	2750	0.8	177	percent of cellular association [23]: 0.43%; percent of cellular association [24]: 2.8%; percent of cellular association [25]: 0.67%; MFI [26]: 1040; MFI [27]: 237
